Laboratory results published in patent US7507799.

Tests used:
[1] = tested on: T1, rat BDNF secreted by adenovirus-infected 293T or endothelial cells (proforms of 30 kDa and 28 kDa)
T1 sequence: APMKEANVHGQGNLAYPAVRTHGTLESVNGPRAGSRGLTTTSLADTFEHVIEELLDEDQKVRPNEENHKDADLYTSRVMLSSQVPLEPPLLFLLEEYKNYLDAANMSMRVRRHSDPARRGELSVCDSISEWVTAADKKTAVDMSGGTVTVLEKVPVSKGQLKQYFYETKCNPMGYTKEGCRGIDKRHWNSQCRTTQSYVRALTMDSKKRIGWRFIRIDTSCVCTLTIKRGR

[2] = tested on: His-tagged cleavage resistant pro-NGF (point mutant, K-R cleavage site at 120,121 mutated to A-A)

B1: MMP-7 (enzyme, UniProt P09237 95-267, looked up, species assumed)
Matrilysin: YSLFPNSPKWTSKVVTYRIVSYTRDLPHITVDRLVSKALNMWGKEIPLHFRKVVWGTADIMIGFARGAHGDSYPFDGPGNTLAHAFAPGTGLGGDAHFDEDERWTDGSSLGINFLYAATHELGHSLGMGHSSDPNAVMYPTYGNGDPQNFKLSQDDIKGIQKLYGKRSNSRKK
[1]
  proteolytic cleavage in endothelial media, Western blot: In endothelial media, only plasmin and MMP-7 appeared to cleave the large proform
  proteolytic cleavage, Western blot: Treatment of the media with recombinant MMP7 resulted in a reduction in the high molecular weight isoforms of 30 kDa or 28 kDa, and the generation of a novel form of approximately 17 kDa
[2]
  proteolytic cleavage, Western blot: incubation of the pro-NGF with MMP-7 but not MMP-2, -3, or -9 resulted in cleavage of the 30 kD proform of NGF to the 17 kD form
